According to publication PMC7340258, “Induced DNA bending by unique dimerization of HigA antitoxin” (IUCrJ, 2020):

Tests used:
[1] = target: T1, MtHigA3 (Mycobacterium tuberculosis H37Rv, UniProt O53333 1-109); assay: EMSA; 0.1-0.6 uM protein, 0.01 uM DNA; settings: protein: recombinant; tags: C-terminal […]; chain copies: 2; blunt
T1 sequence: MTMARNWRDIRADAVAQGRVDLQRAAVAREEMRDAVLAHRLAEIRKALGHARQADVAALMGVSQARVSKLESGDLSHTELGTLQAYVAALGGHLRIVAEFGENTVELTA

[2] = target: the molecule itself; assay: SEC; Superdex 75 (10/300GL), 20 mM citric acid pH 5.0, 150 mM NaCl, 2 mM β-mercaptoethanol; single peak at 26 kDa

Row | Binder | binding result [1] | stoichiometry N [2]
1 | DNA4 (DNA-4, palindrome around -10 box) (dsDNA) DNA 1: AGATATAACCTAGAGGTTATACTG DNA 2: CAGTATAACCTCTAGGTTATATCT | no binding | –
2 | DNA1 (DNA-1, -35 box) (dsDNA) DNA 1: CCGACGATGACCGCGCAC DNA 2: GTGCGCGGTCATCGTCGG | no binding | –
3 | M. tuberculosis HigA3 antitoxin (natural protein, also called MtHigA3) MTMARNWRDIRADAVAQGRVDLQRAAVAREEMRDAVLAHRLAEIRKALGHARQADVAALMGVSQARVSKLESGDLSHTELGTLQAYVAALGGHLRIVAEFGENTVELTA | – | 2
